What follows are sequences tested on F1*sub RNA substrate (template-directed ligation) (assay: fraction ligated after 30 min (ligated reads / total reads); higher = more ligase activity; sequences stand for … in GAGACCGCAACTGAAAAGTTGT…AGTTCTGCACGTAGAAGCAAAAGGC). Details: 42 °C.
Outline: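 The ligase ribozyme variants were produced by PCR amplification of oligo-pool templates, T7 transcription and purification on gel. Their ligated and unligated forms were gel-separated, then reverse transcribed with barcoded primers before MiSeq sequencing. Core bases were filtered at a quality of ≥20, and fraction ligated per variant was ligated reads over total reads.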

Point of comparison: “TATCACTTGTCGTAAGACACTTTGATGGGTTG [2d288]”, fraction ligated 0.755. Against it:
- TATCACTTGTCGTAAGACACTTGGATGGGTTG [2d282] — higher, 0.777
- TATCACTTGTCGTAAGACACTTGGATGGTTA [3d2251] — lower, 0.0219
- TATCACTTGTCGTAAGACACTTGGATGGTTG [3d2252] — lower, 0.036
- TATCACTTGTCGTAAGACACTTGGATGGTTGA [2d280] — lower, 0.0762
- TATCACTTGTCGTAAGACACTTGGGGGTTGA [3d2244] — lower, 0.0227
- TATCACTTGTCGTAAGACACTTGGTGGGTTA [3d2246] — lower, 0.0114
- TATCACTTGTCGTAAGACACTTGGTGGGTTG [3d2247] — lower, 0.0184
- TATCACTTGTCGTAAGACACTTGGTGGGTTGA [2d278] — lower, 0.0691
- TATCACTTGTCGTAAGACACTTGGTGGTTGA [3d2245] — lower, 0.012
- TATCACTTGTCGTAAGACACTTGTGGGTTGA [3d2239] — lower, 0.00905
- TATCACTTGTCGTAAGACACTTTAGGGTTGA [3d2256] — lower, 0.0176
- TATCACTTGTCGTAAGACACTTTATGGGTTA [3d2258] — lower, 0.0282
- TATCACTTGTCGTAAGACACTTTATGGGTTG [3d2259] — lower, 0.0149
- TATCACTTGTCGTAAGACACTTTATGGGTTGA [2d283] — lower, 0.0284
- TATCACTTGTCGTAAGACACTTTATGGTTGA [3d2257] — lower, 0.0255
- TATCACTTGTCGTAAGACACTTTGAGGGTTA [3d2265] — lower, 0.0074
- TATCACTTGTCGTAAGACACTTTGAGGGTTG [3d2266] — lower, 0.00798
- TATCACTTGTCGTAAGACACTTTGAGGGTTGA [2d285] — lower, 0.00683
- TATCACTTGTCGTAAGACACTTTGAGGTTGA [3d2264] — lower, 0.0133
- TATCACTTGTCGTAAGACACTTTGATGGGTT [3d2269] — lower, 0.017
- TATCACTTGTCGTAAGACACTTTGATGGGTTA [2d287] — lower, 0.167
- TATCACTTGTCGTAAGACACTTTGATGGTTA [3d2267] — lower, 0.00859
- TATCACTTGTCGTAAGACACTTTGATGGTTG [3d2268] — lower, 0.0103
- TATCACTTGTCGTAAGACACTTTGATGGTTGA [2d286] — lower, 0.0395
- TATCACTTGTCGTAAGACACTTTGGAGGGTT [3d2279] — lower, 0.0132
- TATCACTTGTCGTAAGACACTTTGGAGGGTTA [2d294] — lower, 0.0266
- TATCACTTGTCGTAAGACACTTTGGAGGGTTG [2d295] — lower, 0.0513
- TATCACTTGTCGTAAGACACTTTGGAGGTTA [3d2277] — lower, 0.0104
- TATCACTTGTCGTAAGACACTTTGGAGGTTG [3d2278] — lower, 0.00797
- TATCACTTGTCGTAAGACACTTTGGAGGTTGA [2d293] — lower, 0.0113
- TATCACTTGTCGTAAGACACTTTGGATGGGTT [2d298] — higher, 0.772
- TATCACTTGTCGTAAGACACTTTGGATGGTT [3d2281] — lower, 0.024
- TATCACTTGTCGTAAGACACTTTGGATGGTTA [2d296] — lower, 0.447
- TATCACTTGTCGTAAGACACTTTGGATGGTTG [2d297] — lower, 0.531
- TATCACTTGTCGTAAGACACTTTGGGGGTTA [3d2271] — lower, 0.0237
- TATCACTTGTCGTAAGACACTTTGGGGGTTG [3d2272] — lower, 0.0105
- TATCACTTGTCGTAAGACACTTTGGGGGTTGA [2d289] — lower, 0.0225
- TATCACTTGTCGTAAGACACTTTGGGGTTGA [3d2260] — lower, 0.0415
- TATCACTTGTCGTAAGACACTTTGGTGGGTT [3d2275] — lower, 0.011
- TATCACTTGTCGTAAGACACTTTGGTGGGTTA [2d291] — lower, 0.018
- TATCACTTGTCGTAAGACACTTTGGTGGGTTG [2d292] — lower, 0.0944
- TATCACTTGTCGTAAGACACTTTGGTGGTTA [3d2273] — lower, 0.0182
- TATCACTTGTCGTAAGACACTTTGGTGGTTG [3d2274] — lower, 0.0129
- TATCACTTGTCGTAAGACACTTTGGTGGTTGA [2d290] — lower, 0.0232
- TATCACTTGTCGTAAGACACTTTGTGGGTTA [3d2262] — lower, 0.00904
- TATCACTTGTCGTAAGACACTTTGTGGGTTG [3d2263] — lower, 0.00738
- TATCACTTGTCGTAAGACACTTTGTGGGTTGA [2d284] — lower, 0.0141
- TATCACTTGTCGTAAGACACTTTGTGGTTGA [3d2261] — lower, 0.0088
- TATCACTTGTCGTAAGACACTTTTGGGTTGA [3d2255] — lower, 0.0315
- TATCACTTGTCGTAAGACATGGATGGGTTGA [3d2207] — higher, 0.808
- TATCACTTGTCGTAAGACATTGATGGGTTGA [3d2208] — higher, 0.778
- TATCACTTGTCGTAAGACATTGGAGGGTTGA [3d2210] — lower, 0.0593
- TATCACTTGTCGTAAGACATTGGATGGGTTA [3d2212] — higher, 0.78
- TATCACTTGTCGTAAGACATTGGATGGGTTG [3d2213] — higher, 0.797
- TATCACTTGTCGTAAGACATTGGATGGGTTGA [2d269] — higher, 0.815
- TATCACTTGTCGTAAGACATTGGATGGTTGA [3d2211] — lower, 0.0757
- TATCACTTGTCGTAAGACATTGGTGGGTTGA [3d2209] — lower, 0.0429
- TATCACTTGTCGTAAGACATTTATGGGTTGA [3d2214] — lower, 0.0203
- TATCACTTGTCGTAAGACATTTGAGGGTTGA [3d2216] — lower, 0.00411
- TATCACTTGTCGTAAGACATTTGATGGGTTA [3d2218] — lower, 0.0152
- TATCACTTGTCGTAAGACATTTGATGGGTTG [3d2219] — lower, 0.098
- TATCACTTGTCGTAAGACATTTGATGGGTTGA [2d270] — lower, 0.291
- TATCACTTGTCGTAAGACATTTGATGGTTGA [3d2217] — lower, 0.00686
- TATCACTTGTCGTAAGACATTTGGAGGGTTA [3d2225] — lower, 0.0022
- TATCACTTGTCGTAAGACATTTGGAGGGTTG [3d2226] — lower, 0.00325
- TATCACTTGTCGTAAGACATTTGGAGGGTTGA [2d272] — lower, 0.015
- TATCACTTGTCGTAAGACATTTGGAGGTTGA [3d2224] — lower, 0.00439
- TATCACTTGTCGTAAGACATTTGGATGGGTT [3d2229] — lower, 0.73
- TATCACTTGTCGTAAGACATTTGGATGGGTTA [2d274] — higher, 0.806
- TATCACTTGTCGTAAGACATTTGGATGGGTTG [2d275] — higher, 0.828
- TATCACTTGTCGTAAGACATTTGGATGGTTA [3d2227] — lower, 0.0433
- TATCACTTGTCGTAAGACATTTGGATGGTTG [3d2228] — lower, 0.0492
- TATCACTTGTCGTAAGACATTTGGATGGTTGA [2d273] — lower, 0.121
- TATCACTTGTCGTAAGACATTTGGGGGTTGA [3d2220] — lower, 0.0157
- TATCACTTGTCGTAAGACATTTGGTGGGTTA [3d2222] — lower, 0.00331
- TATCACTTGTCGTAAGACATTTGGTGGGTTG [3d2223] — lower, 0.0154
- TATCACTTGTCGTAAGACATTTGGTGGGTTGA [2d271] — lower, 0.0311
- TATCACTTGTCGTAAGACATTTGGTGGTTGA [3d2221] — lower, 0.0037
- TATCACTTGTCGTAAGACATTTGTGGGTTGA [3d2215] — lower, 0.00941
- TATCACTTGTCGTAAGACCTGGATGGGTTGA [3d2183] — higher, 0.757
- TATCACTTGTCGTAAGACCTTGATGGGTTGA [3d2184] — higher, 0.766
- TATCACTTGTCGTAAGACCTTGGAGGGTTGA [3d2186] — lower, 0.0676
- TATCACTTGTCGTAAGACCTTGGATGGGTTA [3d2188] — higher, 0.771
- TATCACTTGTCGTAAGACCTTGGATGGGTTG [3d2189] — higher, 0.79
- TATCACTTGTCGTAAGACCTTGGATGGGTTGA [2d262] — higher, 0.791
- TATCACTTGTCGTAAGACCTTGGATGGTTGA [3d2187] — lower, 0.127
- TATCACTTGTCGTAAGACCTTGGTGGGTTGA [3d2185] — lower, 0.0725
- TATCACTTGTCGTAAGACCTTTATGGGTTGA [3d2190] — lower, 0.11
- TATCACTTGTCGTAAGACCTTTGAGGGTTGA [3d2192] — lower, 0.0254
- TATCACTTGTCGTAAGACCTTTGATGGGTTA [3d2194] — lower, 0.0671
- TATCACTTGTCGTAAGACCTTTGATGGGTTG [3d2195] — lower, 0.513
- TATCACTTGTCGTAAGACCTTTGATGGGTTGA [2d263] — higher, 0.76
- TATCACTTGTCGTAAGACCTTTGATGGTTGA [3d2193] — lower, 0.0397
- TATCACTTGTCGTAAGACCTTTGGAGGGTTA [3d2201] — lower, 0.0991
- TATCACTTGTCGTAAGACCTTTGGAGGGTTG [3d2202] — lower, 0.0402
- TATCACTTGTCGTAAGACCTTTGGAGGGTTGA [2d265] — lower, 0.072
- TATCACTTGTCGTAAGACCTTTGGAGGTTGA [3d2200] — lower, 0.049
- TATCACTTGTCGTAAGACCTTTGGATGGGTT [3d2205] — lower, 0.744
- TATCACTTGTCGTAAGACCTTTGGATGGGTTA [2d267] — higher, 0.788
- TATCACTTGTCGTAAGACCTTTGGATGGGTTG [2d268] — higher, 0.828
- TATCACTTGTCGTAAGACCTTTGGATGGTTA [3d2203] — lower, 0.127
- TATCACTTGTCGTAAGACCTTTGGATGGTTG [3d2204] — lower, 0.139
- TATCACTTGTCGTAAGACCTTTGGATGGTTGA [2d266] — lower, 0.285
- TATCACTTGTCGTAAGACCTTTGGGGGTTGA [3d2196] — lower, 0.0519
- TATCACTTGTCGTAAGACCTTTGGTGGGTTA [3d2198] — lower, 0.0357
- TATCACTTGTCGTAAGACCTTTGGTGGGTTG [3d2199] — lower, 0.0351
- TATCACTTGTCGTAAGACCTTTGGTGGGTTGA [2d264] — lower, 0.114
- TATCACTTGTCGTAAGACCTTTGGTGGTTGA [3d2197] — lower, 0.0467
- TATCACTTGTCGTAAGACCTTTGTGGGTTGA [3d2191] — lower, 0.0153
- TATCACTTGTCGTAAGACTTGGATGGGTTGA [3d2107] — higher, 0.771

Reference: the supplement of paper PMC6755084
